Results as given in the supplement of paper PMC12042874.
± gives the uncertainty stated by the source.

Assay: amyloid nucleation score (Sup35N fusion, yeast selection) (log enrichment); library NNK3; higher = more nucleation; inactive = no reads after selection
How it was run: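 DiMSum was used to calculate nucleation scores as log enrichment of output over input reads, centred on the mode score of non-aggregating sequences. Sequences with fewer than 100 input reads were not scored. Input and output came from Illumina sequencing of plasmid inserts in psi-negative yeast expressing peptides of 20 random codons fused to Sup35N, induced 24 hours with 100 μM copper sulfate and then grown 7 days at 30°C on medium lacking adenine and uracil.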

Substance: GNVSCHFILGQRVHFPSCDF
- amyloid nucleation score: 0.809 ± 0.29

Substance: GPFVSFYFVFTRFNQTSLGF
- amyloid nucleation score: 1.57 ± 0.066

Substance: GPGNMAMNVRAVKSGYHIAG
- amyloid nucleation score: inactive

Substance: GPIINVIS
- amyloid nucleation score: inactive

Substance: GPSAGGFCQLRGVDVDV
- amyloid nucleation score: inactive

Substance: GPSWVTHESRKCTCQARDKV
- amyloid nucleation score: inactive

Substance: GPYHELCNHRL
- amyloid nucleation score: inactive

Substance: GQFANPVK
- amyloid nucleation score: inactive

Substance: GQPTICKDGYSMLLNEFSRS
- amyloid nucleation score: inactive

Substance: GQVYMSVRV
- amyloid nucleation score: inactive

Substance: GQWDYLLTQYKNIK
- amyloid nucleation score: -1.01 ± 1.1

Substance: GRALNWTG
- amyloid nucleation score: inactive

Substance: GRFKSGSLPFRRSGE
- amyloid nucleation score: inactive

Substance: GRGSKLVCVR
- amyloid nucleation score: 2.63 ± 0.071

Substance: GRGYSSSTLWVLGWFD
- amyloid nucleation score: inactive

Substance: GRISAKSVVTSWRGVGPYSV
- amyloid nucleation score: inactive

Substance: GRIYFYLVKTDPVQERTQLF
- amyloid nucleation score: inactive

Substance: GRKVCLSRPTRFNSFLWMVY
- amyloid nucleation score: inactive

Substance: GRLINYSILKMVTVWFYLL
- amyloid nucleation score: inactive

Substance: GRLIPREGT
- amyloid nucleation score: inactive

Substance: GRNKSLYGIGLVRYVMLVSE
- amyloid nucleation score: inactive

Substance: GRRMWCCREAHRSNDQV
- amyloid nucleation score: 1.28 ± 0.11

Substance: GRRYRKFDNTGGNSPK
- amyloid nucleation score: inactive

Substance: GRSGYH
- amyloid nucleation score: inactive

Substance: GRSSMFRINNQMLCWVSIPC
- amyloid nucleation score: inactive

Substance: GRTYSGYTGWRGVLGHDLVM
- amyloid nucleation score: inactive

Substance: GRYHDGAAQWGRHNVFRSSA
- amyloid nucleation score: inactive

Substance: GSALCHCLCNMEVMSYFVAF
- amyloid nucleation score: inactive

Substance: GSCFVKEVSGGHMLGS
- amyloid nucleation score: inactive

Substance: GSDEEESLNCSYASSLTSVC
- amyloid nucleation score: inactive

Substance: GSFGPIFQWNTIGALGFFG
- amyloid nucleation score: 2.19 ± 0.059

Substance: GSGGAMELVRFYYLNVAVCV
- amyloid nucleation score: inactive

Substance: GSKLICIVWLFLLFG
- amyloid nucleation score: inactive

Substance: GSLRNPVSGRLENVGGRAWG
- amyloid nucleation score: inactive

Substance: GSMSLIYYGLRRKVMGYVLS
- amyloid nucleation score: 0.316 ± 0.7

Substance: GSMTFNYTLEGLNYHNDTKE
- amyloid nucleation score: inactive

Substance: GSMVVEFMYYHPTPTRGAWA
- amyloid nucleation score: 0.8 ± 0.17

Substance: GSPFYIFRVINLYT
- amyloid nucleation score: 2.93 ± 0.049

Substance: GSPQVSAAGQF
- amyloid nucleation score: inactive

Substance: GSRDYCVVNSIESDNCFQGW
- amyloid nucleation score: inactive

Substance: GSRRWFEFFVPWLQLD
- amyloid nucleation score: inactive

Substance: GSSGENFVNYSKVTKSDLLY
- amyloid nucleation score: inactive

Substance: GSSVVS
- amyloid nucleation score: inactive

Substance: GSTCSDLLALYPWYVRIKEI
- amyloid nucleation score: inactive

Substance: GSVGFIIKGWWSTE
- amyloid nucleation score: 0.621 ± 0.26

Substance: GSWMCVMLRVFCSCSWLYCS
- amyloid nucleation score: -0.018 ± 0.93

Substance: GSWTVLQNRHQAERVVSVYR
- amyloid nucleation score: inactive

Substance: GSYFRATACPSLFCSFRVEW
- amyloid nucleation score: inactive

Substance: GSYLQGMRCVADWDNGEQLR
- amyloid nucleation score: 1.97 ± 0.091

Substance: GSYMYKKGLQF
- amyloid nucleation score: inactive

Substance: GSYRLLY
- amyloid nucleation score: inactive

Substance: GSYYWGGIGFTSEI
- amyloid nucleation score: 0.846 ± 0.14

Substance: GTLISEVCIFQ
- amyloid nucleation score: inactive

Substance: GTLWNSIFACVFQCSERSIM
- amyloid nucleation score: inactive

Substance: GTPYCICALSMHSTWDCN
- amyloid nucleation score: 1.64 ± 0.081

Substance: GTRLRVGILIPRWDSGTFGF
- amyloid nucleation score: inactive

Substance: GTYFSCVYGTKKL
- amyloid nucleation score: inactive

Substance: GVFCSVINLIDATVVN
- amyloid nucleation score: inactive

Substance: GVFERR
- amyloid nucleation score: inactive

Substance: GVFRPMWVLARVDSQNLASL
- amyloid nucleation score: inactive

Substance: GVGATATTFWGVRWVRRSTN
- amyloid nucleation score: inactive

Substance: GVGFQGYVTRGKNRLRDRAQ
- amyloid nucleation score: inactive

Substance: GVGPVGRF
- amyloid nucleation score: inactive

Substance: GVISVFWMLWYLYPSLL
- amyloid nucleation score: inactive

Substance: GVLRLVISEHDLDETFVFMT
- amyloid nucleation score: 0.189 ± 0.43

Substance: GVMVPTALLISNPSRRFHWL
- amyloid nucleation score: inactive

Substance: GVRNGPKLILFYLRSWHEAY
- amyloid nucleation score: inactive

Substance: GVSLATSYKMLLGVIVLGME
- amyloid nucleation score: 0.697 ± 0.18

Substance: GVSSCFWSSFEQKFMKLSSV
- amyloid nucleation score: inactive

Substance: GVSYSLCLLIGLNRIRMGMV
- amyloid nucleation score: inactive

Substance: GVTCKHRPAKYVQDRMNF
- amyloid nucleation score: inactive

Substance: GVWKEHVTRAAVVSWKEGVN
- amyloid nucleation score: inactive

Substance: GWHYMYSGYANYIGFSLPLY
- amyloid nucleation score: inactive

Substance: GWMNACT
- amyloid nucleation score: 0.356 ± 0.34

Substance: GWMYTCRDAHYLDGWRLVHD
- amyloid nucleation score: inactive

Substance: GWNSRM
- amyloid nucleation score: inactive

Substance: GWRFMLFRAQLFIWMIICFC
- amyloid nucleation score: inactive

Substance: GWSYRDLTMVGVNELFV
- amyloid nucleation score: inactive

Substance: GWTLQWIVWI
- amyloid nucleation score: 0.081 ± 0.81

Substance: GWYLYIVTG
- amyloid nucleation score: inactive

Substance: GYDGRGSHAL
- amyloid nucleation score: inactive

Substance: GYECLIVFFMRLLSIPVVSD
- amyloid nucleation score: inactive

Substance: GYKATQLLSGGPYNLCVGGT
- amyloid nucleation score: inactive

Substance: GYLWVLRLPGVSEFIEMDLQ
- amyloid nucleation score: inactive

Substance: GYLYDFLPCP
- amyloid nucleation score: -0.497 ± 0.7

Substance: GYNFNEENINMLHQREFSLS
- amyloid nucleation score: inactive

Substance: GYNICWTPWYAVLDGVTKML
- amyloid nucleation score: inactive

Substance: GYNIMLYMLKYS
- amyloid nucleation score: inactive

Substance: GYNVVKLCFIIILFVVEESS
- amyloid nucleation score: inactive

Substance: GYWGTLSERPYTELIAGTSI
- amyloid nucleation score: inactive

Substance: HCAMCWGILEFEISMFAMEW
- amyloid nucleation score: inactive

Substance: HCFFDFAYLTRCSSLRSKRC
- amyloid nucleation score: inactive

Substance: HCFVANGFLD
- amyloid nucleation score: inactive

Substance: HCGWMAFFISLAPQFVYVLI
- amyloid nucleation score: inactive

Substance: HCKRYNVERKNFCDLHNQRY
- amyloid nucleation score: inactive

Substance: HCVRVASWGT
- amyloid nucleation score: inactive

Substance: HDLAGQFISV
- amyloid nucleation score: inactive

Substance: HDNRDDRIVFFARLDHSRRS
- amyloid nucleation score: 0.626 ± 0.34

Substance: HDRDHDMINSFIAFRQYWPW
- amyloid nucleation score: 0.339 ± 0.34

Substance: HEGCSMSGRIPLLSRYMGYG
- amyloid nucleation score: inactive

Substance: HFFMLGLYTSACHLESNYDC
- amyloid nucleation score: 0.758 ± 0.1

Substance: HFIASRGSGNLKVAFTDSQT
- amyloid nucleation score: 1.23 ± 0.1

Substance: HFITCELGFGDKGSIFFIAG
- amyloid nucleation score: inactive

Substance: HFLHYRPTGNHRLFWIRKDY
- amyloid nucleation score: inactive

Substance: HFQIIC
- amyloid nucleation score: inactive

Substance: HFSYKSKCVGGRFLNDIDVY
- amyloid nucleation score: inactive

Substance: HFVKVE
- amyloid nucleation score: inactive

Substance: HGIRYTCWRWECSNVGGSSS
- amyloid nucleation score: inactive

Substance: HGSYLMRILR
- amyloid nucleation score: inactive

Substance: HGTAGLPK
- amyloid nucleation score: 0.807 ± 0.14

Substance: HGVPSLLICWRVLNRSIFMV
- amyloid nucleation score: inactive

Substance: HHYLTHNRLVIKHHYRKYYD
- amyloid nucleation score: inactive

Substance: HIMSEGHSLAMGCTCSNNYP
- amyloid nucleation score: inactive

Substance: HIVKIRSG
- amyloid nucleation score: inactive

Substance: HIVPAVCT
- amyloid nucleation score: inactive

Substance: HKASKLVYLQWCRHECWSLV
- amyloid nucleation score: inactive

Substance: HKGAQPVKVKSGQSDTRPPS
- amyloid nucleation score: inactive

Substance: HKLAKTNRSSIIVCGNRVLL
- amyloid nucleation score: 0.916 ± 0.11

Substance: HKLVFEHRLLVGPRNVDIFL
- amyloid nucleation score: inactive

Substance: HKRLGPLHYRLICG
- amyloid nucleation score: inactive

Substance: HKYKQIWMFPEGPV
- amyloid nucleation score: inactive

Substance: HLAMWFNHLSLDCL
- amyloid nucleation score: inactive

Substance: HLGKPKEFMTIAGGLHCLML
- amyloid nucleation score: inactive

Substance: HLGYTVYSRTMRSSFVFRVL
- amyloid nucleation score: inactive

Substance: HLNTSLETLKVLMVTQPTGN
- amyloid nucleation score: inactive

Substance: HLRVRCLSF
- amyloid nucleation score: inactive

Substance: HLVRIASIRLNCDPLYRSVV
- amyloid nucleation score: inactive

Substance: HLWCKPRLWKSLFVPYD
- amyloid nucleation score: inactive

Substance: HLWHSVWYALRDSPSLGFFI
- amyloid nucleation score: inactive

Substance: HLWVNRDQWLVVLTEFSRFW
- amyloid nucleation score: inactive

Substance: HLYHENSVFQLCVCTFVYSS
- amyloid nucleation score: 2.91 ± 0.069

Substance: HLYYAP
- amyloid nucleation score: inactive

Substance: HMIKVIVLCMMRFFIKSKNS
- amyloid nucleation score: inactive

Substance: HMLLVD
- amyloid nucleation score: inactive

Substance: HMSQYGRLCKMATLTFT
- amyloid nucleation score: inactive

Substance: HNEHILSQ
- amyloid nucleation score: inactive

Substance: HNETKLCSHMLGVMGKNCGE
- amyloid nucleation score: inactive

Substance: HNLNIHYMISRVNAYTCTFI
- amyloid nucleation score: 2.5 ± 0.074

Substance: HNLNLDGLMSKSSFTPMVLL
- amyloid nucleation score: inactive

Substance: HNLTNLVSILGNAS
- amyloid nucleation score: inactive

Substance: HNWNRFTQSILWGTYNFFVG
- amyloid nucleation score: 2.26 ± 0.085

Substance: HPYSNVWMSL
- amyloid nucleation score: inactive

Substance: HQIQLVATHPTEILHAGTSN
- amyloid nucleation score: inactive

Substance: HQKKMRFALR
- amyloid nucleation score: inactive

Substance: HRCDAWYYRS
- amyloid nucleation score: inactive

Substance: HRINWRIHTTYISTYWKKCM
- amyloid nucleation score: inactive

Substance: HRIVHDSVLKRVFDYFR
- amyloid nucleation score: inactive

Substance: HRIVTPPNDLWGVWASTV
- amyloid nucleation score: inactive

Substance: HRKSGMVIYFTVPWFMKRNC
- amyloid nucleation score: inactive

Substance: HSAYVVKWSSRTTPKFFSLW
- amyloid nucleation score: inactive

Substance: HSCFCQCVSARYCDYSSVTR
- amyloid nucleation score: inactive

Substance: HSDKCDCSAVDDLLRRVVL
- amyloid nucleation score: inactive

Substance: HSIHSDNRVLWLFDWSLSSR
- amyloid nucleation score: inactive

Substance: HSLDRKYSWRI
- amyloid nucleation score: inactive

Substance: HSLTENAKREIT
- amyloid nucleation score: inactive

Substance: HSLVVNSSSERRYG
- amyloid nucleation score: inactive

Substance: HSMALITSSRVLVRVLTIMR
- amyloid nucleation score: inactive

Substance: HSNECFLGDSSNWWVYWAVR
- amyloid nucleation score: inactive

Substance: HSSLNGRNG
- amyloid nucleation score: inactive
